These results are taken from patent US5789538.

The target in the data set is Zif268 finger 1 variant phage pool, CCTG selection round 5 finger 1 positions -1, 2, 3, 6 randomized (four NNS codons), pool (UniProt P08046). The data set is described as follows: SELEX. Particulars: [none], phage display pool, no enrichment, 0.45 M NaCl washes, 10 uM ZnCl2, 5 mM MgCl2.

On to “CTGAGCGTGGCCTGAGTGATCGATC / CACTCAGGCCACGCTCAG [CCTG duplex]”, for which the activity (% phage retention) is less than 0.001.
